From paper PMC8876890, “Engineering Chimeras by Fusing Plant Receptor-like Kinase EMS1 and BRI1 Reveals the Two Receptors’ Structural Specificity and Molecular Mechanisms” (International Journal of Molecular Sciences, 2022)

B1: GST-BRI1-CD (domain or fragment, Arabidopsis thaliana, UniProt O22476 814-1196, looked up)
chain: GREMRKRRRKKEAELEMYAEGHGNSGDRTANNTNWKLTGVKEALSINLAAFEKPLRKLTFADLLQATNGFHNDSLIGSGGFGDVYKAILKDGSAVAIKKLIHVSGQGDREFMAEMETIGKIKHRNLVPLLGYCKVGDERLLVYEFMKYGSLEDVLHDPKKAGVKLNWSTRRKIAIGSARGLAFLHHNCSPHIIHRDMKSSNVLLDENLEARVSDFGMARLMSAMDTHLSVSTLAGTPGYVPPEYYQSFRCSTKGDVYSYGVVLLELLTGKRPTDSPDFGDNNLVGWVKQHAKLRISDVFDPELMKEDPALEIELLQHLKVAVACLDDRAWRRPTMVQVMAMFKEIQAGSGIDSQSTIRSIEDGGFSTIEMVDMSIKEVPEGKL
notes: BRASSINOSTEROID … 1 (BRI1) LRR receptor-like kinase, Arabidopsis thaliana, cytoplasmic domain, residues 814-1196, cloned into pGEX-4T-3; also called cytoplasmic domain of BRI1; source: E. coli BL21 (DE3), purified (Glutathione Sepharose 4B)
B2: GST-EMS1-CD (domain or fragment, Arabidopsis thaliana, UniProt Q9LYN8 849-1192, looked up)
chain: RRWAMTKRVKQRDDPERMEESRLKGFVDQNLYFLSGSRSREPLSINIAMFEQPLLKVRLGDIVEATDHFSKKNIIGDGGFGTVYKACLPGEKTVAVKKLSEAKTQGNREFMAEMETLGKVKHPNLVSLLGYCSFSEEKLLVYEYMVNGSLDHWLRNQTGMLEVLDWSKRLKIAVGAARGLAFLHHGFIPHIIHRDIKASNILLDGDFEPKVADFGLARLISACESHVSTVIAGTFGYIPPEYGQSARATTKGDVYSFGVILLELVTGKEPTGPDFKESEGGNLVGWAIQKINQGKAVDVIDPLLVSVALKNSQLRLLQIAMLCLAETPAKRPNMLDVLKALKEI
notes: EXCESS MICROSPOROCYTES1 (EMS1) LRR receptor-like kinase, Arabidopsis thaliana, cytoplasmic domain, residues 849-1192, cloned into pGEX-4T-3; also called cytoplasmic domain of EMS1; EMS1 kinase domain; source: E. coli BL21 (DE3), purified (Glutathione Sepharose 4B)

Assays:
BSK1-His = target: T1, BSK1-His (UniProt Q944A7 1-512); test: pull-down; GST fusion proteins on Glutathione Sepharose 4B beads, incubated with BSK1-His or BSK3-His 4-6 h at 4 °C, washed 6-8 times with His lysis buffer; blot with His and GST antibodies; conditions: both partners purified
T1 construct: BSK1, receptor-like cytoplasmic kinase of subfamily RLCK-XII, full-length cDNA in pET-28a; The species is most likely Arabidopsis thaliana, the plant of the whole study; source: E. coli BL21 (DE3), purified (Ni-NTA Agarose)

BSK3-His = target: T2, BSK3-His (UniProt Q8W4L3 1-489); test: as above; conditions: both partners purified
T2 construct: BSK3, receptor-like cytoplasmic kinase of subfamily RLCK-XII, full-length cDNA in pET-28a; The species is most likely Arabidopsis thaliana, the plant of the whole study; source: E. coli BL21 (DE3), purified (Ni-NTA Agarose)
T2 sequence (Q8W4L3 whole entry): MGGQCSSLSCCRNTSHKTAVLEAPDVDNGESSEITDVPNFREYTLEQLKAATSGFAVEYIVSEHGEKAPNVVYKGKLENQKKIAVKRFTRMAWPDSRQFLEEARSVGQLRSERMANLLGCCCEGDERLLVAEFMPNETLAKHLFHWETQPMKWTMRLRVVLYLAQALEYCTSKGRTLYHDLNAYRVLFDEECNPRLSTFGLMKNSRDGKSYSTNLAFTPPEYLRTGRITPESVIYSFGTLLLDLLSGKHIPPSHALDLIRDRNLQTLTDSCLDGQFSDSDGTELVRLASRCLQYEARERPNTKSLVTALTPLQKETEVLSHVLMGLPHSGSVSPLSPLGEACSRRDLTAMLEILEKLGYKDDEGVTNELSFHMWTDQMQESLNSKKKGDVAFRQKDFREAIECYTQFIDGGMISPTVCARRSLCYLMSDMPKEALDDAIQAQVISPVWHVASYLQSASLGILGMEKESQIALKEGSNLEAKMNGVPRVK

T1 sequence (Q944A7 whole entry, the tested form may be a part): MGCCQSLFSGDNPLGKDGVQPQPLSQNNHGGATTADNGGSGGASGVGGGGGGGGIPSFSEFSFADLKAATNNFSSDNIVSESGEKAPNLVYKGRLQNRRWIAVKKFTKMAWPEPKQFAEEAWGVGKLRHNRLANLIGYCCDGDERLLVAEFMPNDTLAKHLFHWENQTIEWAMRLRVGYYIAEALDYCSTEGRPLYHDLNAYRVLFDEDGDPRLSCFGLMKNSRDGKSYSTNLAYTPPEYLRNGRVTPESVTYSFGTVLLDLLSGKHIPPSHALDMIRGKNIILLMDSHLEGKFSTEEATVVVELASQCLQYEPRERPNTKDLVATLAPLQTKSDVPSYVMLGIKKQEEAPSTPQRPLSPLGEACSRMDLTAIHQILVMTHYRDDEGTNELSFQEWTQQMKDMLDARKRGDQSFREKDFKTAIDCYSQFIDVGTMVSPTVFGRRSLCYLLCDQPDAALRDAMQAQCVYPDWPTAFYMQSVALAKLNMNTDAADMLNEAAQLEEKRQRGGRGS

| Binder | binding result (BSK1-His) | binding result (BSK3-His) |
| --- | --- | --- |
| B1 | binds | binds |
| B2 | binds | binds |
